We go through six molecules from PMC10578477, “Biochemical and genetic dissection of the RNA-binding surface of the FinO domain of Escherichia coli ProQ”.

Series [1] has as its target T1, ProQ NTD D41A D41A (Escherichia coli) (UniProt P45577).
T1 sequence: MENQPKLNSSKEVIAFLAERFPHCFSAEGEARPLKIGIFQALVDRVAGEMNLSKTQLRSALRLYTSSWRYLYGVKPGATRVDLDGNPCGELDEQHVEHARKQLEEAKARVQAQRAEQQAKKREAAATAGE
Briefly: EMSA. Conditions: EMSA: 25 mM Tris pH 7.5, 150 mM NaCl, 5% glycerol, 1 mM MgCl2, 1 nM 32P-RNA, 30 min RT; microplates pretreated with 0.0025% BSA; 6% gel in 0.5x TBE at 4 C. In general terms: Mobility shift assays separate free from complexed probe on a gel.

In series [2] the target is T2, ProQ NTD R62A R62A (Escherichia coli) (UniProt P45577).
T2 sequence: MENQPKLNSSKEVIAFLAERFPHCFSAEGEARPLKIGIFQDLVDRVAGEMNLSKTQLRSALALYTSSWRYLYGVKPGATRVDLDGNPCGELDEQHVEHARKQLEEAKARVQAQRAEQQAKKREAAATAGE
Briefly: EMSA. The note with it: EMSA: 25 mM Tris pH 7.5, 150 mM NaCl, 5% glycerol, 1 mM MgCl2, 1 nM 32P-RNA, 30 min RT; microplates pretreated with 0.0025% BSA; 6% gel in 0.5x TBE at 4 C.

The target of series [3] is T3, ProQ NTD T65A T65A (Escherichia coli) (UniProt P45577).
T3 sequence: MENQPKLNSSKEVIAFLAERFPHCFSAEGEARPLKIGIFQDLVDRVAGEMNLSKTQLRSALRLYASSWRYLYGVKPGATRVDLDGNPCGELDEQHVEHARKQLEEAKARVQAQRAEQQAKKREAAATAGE
In words: EMSA. Conditions: EMSA: 25 mM Tris pH 7.5, 150 mM NaCl, 5% glycerol, 1 mM MgCl2, 1 nM 32P-RNA, 30 min RT; microplates pretreated with 0.0025% BSA; 6% gel in 0.5x TBE at 4 C.

The target in series [4] is T4, ProQ NTD R58A R58A (Escherichia coli) (UniProt P45577).
T4 sequence: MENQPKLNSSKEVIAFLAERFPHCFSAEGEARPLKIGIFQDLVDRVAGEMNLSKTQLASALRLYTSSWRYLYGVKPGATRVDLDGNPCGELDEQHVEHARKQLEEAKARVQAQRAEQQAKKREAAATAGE
In words: EMSA. The note with it: EMSA: 25 mM Tris pH 7.5, 150 mM NaCl, 5% glycerol, 1 mM MgCl2, 1 nM 32P-RNA, 30 min RT; microplates pretreated with 0.0025% BSA; 6% gel in 0.5x TBE at 4 C.

The target of series [5] is T5, ProQ NTD R69A R69A (Escherichia coli) (UniProt P45577).
T5 sequence: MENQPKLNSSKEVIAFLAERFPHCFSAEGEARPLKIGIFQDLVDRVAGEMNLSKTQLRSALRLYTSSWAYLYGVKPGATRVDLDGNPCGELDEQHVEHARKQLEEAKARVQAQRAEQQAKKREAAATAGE
Briefly: EMSA. Conditions: EMSA: 25 mM Tris pH 7.5, 150 mM NaCl, 5% glycerol, 1 mM MgCl2, 1 nM 32P-RNA, 30 min RT; microplates pretreated with 0.0025% BSA; 6% gel in 0.5x TBE at 4 C.

The target in series [6] is T6, ProQ NTD R69A (Escherichia coli, UniProt P45577 1-130, R69A).
T6 sequence: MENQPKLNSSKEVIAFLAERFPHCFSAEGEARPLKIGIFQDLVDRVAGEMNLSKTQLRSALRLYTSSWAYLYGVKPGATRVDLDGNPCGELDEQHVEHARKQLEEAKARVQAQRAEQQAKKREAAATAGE
Briefly: EMSA; affinity not decreased vs R69A with cspE-3'; EMSA: 25 mM Tris pH 7.5, 150 mM NaCl, 5% glycerol, 1 mM MgCl2, 1 nM 32P-RNA, 30 min RT; microplates pretreated with 0.0025% BSA; 6% gel in 0.5x TBE at 4 C. The note with it: protein: recombinant; tags: His6-TEV removed, N-terminal Ser remains; label: 5'-32P; hairpin with 5' and 3' single-stranded regions.

The target of series [7] is T7, ProQ NTD K35A (Escherichia coli, UniProt P45577 1-130, K35A).
T7 sequence: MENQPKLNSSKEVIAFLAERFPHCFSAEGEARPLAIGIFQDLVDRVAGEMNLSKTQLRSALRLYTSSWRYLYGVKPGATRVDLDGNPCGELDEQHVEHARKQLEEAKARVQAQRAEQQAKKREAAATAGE
In words: EMSA; EMSA: 25 mM Tris pH 7.5, 150 mM NaCl, 5% glycerol, 1 mM MgCl2, 1 nM 32P-RNA, 30 min RT; microplates pretreated with 0.0025% BSA; 6% gel in 0.5x TBE at 4 C. Conditions: protein: recombinant, tags: His6-TEV removed, N-terminal Ser remains, label: 5'-32P.

Series [8] has as its target T6, ProQ NTD R69A. The description is as above. Conditions: protein: recombinant; tags: His6-TEV removed, N-terminal Ser remains; label: 5'-32P; hairpin, 6 U tail (2 predicted single-stranded).
Series [9] has as its target T6, ProQ NTD R69A. The series is described as above. The note with it: protein: recombinant; tags: His6-TEV removed, N-terminal Ser remains; label: 5'-32P; hairpin, no 5' single strand.
Series [10] addresses T7, ProQ NTD K35A. The series is described as above. The note with it: protein: recombinant; tags: His6-TEV removed, N-terminal Ser remains; label: 5'-32P; hairpin, no 5' single strand.
The target in another series is T8, ProQ NTD R80K (Escherichia coli, UniProt P45577 1-130, R80K).
T8 sequence: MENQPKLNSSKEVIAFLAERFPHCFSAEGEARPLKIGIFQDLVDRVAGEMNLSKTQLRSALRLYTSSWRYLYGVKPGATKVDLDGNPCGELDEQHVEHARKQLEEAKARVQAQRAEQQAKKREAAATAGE
Described as above. The note with it: protein: recombinant; tags: His6-TEV removed, N-terminal Ser remains; label: 5'-32P; terminator hairpin, 8 U 3' tail.

For another series, the target named is T9, ProQ NTD R80A (Escherichia coli, UniProt P45577 1-130, R80A).
T9 sequence: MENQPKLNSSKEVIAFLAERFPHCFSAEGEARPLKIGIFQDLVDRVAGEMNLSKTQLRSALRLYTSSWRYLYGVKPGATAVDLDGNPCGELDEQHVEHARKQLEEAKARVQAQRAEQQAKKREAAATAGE
The series is described as above. The note with it: protein: recombinant; tags: His6-TEV removed, N-terminal Ser remains; label: 5'-32P; terminator hairpin, 8 U 3' tail.

The target of a further series is T10, ProQ NTD T65A (Escherichia coli, UniProt P45577 1-130, T65A).
T10 sequence: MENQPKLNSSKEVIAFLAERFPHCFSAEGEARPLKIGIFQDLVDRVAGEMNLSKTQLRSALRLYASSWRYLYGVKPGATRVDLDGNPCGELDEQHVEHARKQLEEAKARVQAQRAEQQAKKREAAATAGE
The description is as above. The note with it: protein: recombinant; tags: His6-TEV removed, N-terminal Ser remains; label: 5'-32P; terminator hairpin, 8 U 3' tail.

Another series addresses T11, ProQ NTD D41A (Escherichia coli, UniProt P45577 1-130, D41A).
T11 sequence: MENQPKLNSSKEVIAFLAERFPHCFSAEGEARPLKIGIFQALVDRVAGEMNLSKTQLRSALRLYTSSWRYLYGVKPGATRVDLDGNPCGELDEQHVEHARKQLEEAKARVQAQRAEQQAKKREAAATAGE
Described as above. The note with it: protein: recombinant; tags: His6-TEV removed, N-terminal Ser remains; label: 5'-32P; terminator hairpin, 8 U 3' tail.

The target in series [11] is T6, ProQ NTD R69A. In words: EMSA; max fraction bound 88%; EMSA: 25 mM Tris pH 7.5, 150 mM NaCl, 5% glycerol, 1 mM MgCl2, 1 nM 32P-RNA, 30 min RT; microplates pretreated with 0.0025% BSA; 6% gel in 0.5x TBE at 4 C. The note with it: protein: recombinant; tags: His6-TEV removed, N-terminal Ser remains; label: 5'-32P; terminator hairpin, 8 U 3' tail.
Series [12] concerns the target T7, ProQ NTD K35A. In words: EMSA; max fraction bound similar to WT; EMSA: 25 mM Tris pH 7.5, 150 mM NaCl, 5% glycerol, 1 mM MgCl2, 1 nM 32P-RNA, 30 min RT; microplates pretreated with 0.0025% BSA; 6% gel in 0.5x TBE at 4 C. Conditions: protein: recombinant; tags: His6-TEV removed, N-terminal Ser remains; label: 5'-32P; terminator hairpin, 8 U 3' tail.
For the next series, the target named is T12, ProQ NTD R62A (Escherichia coli, UniProt P45577 1-130, R62A).
T12 sequence: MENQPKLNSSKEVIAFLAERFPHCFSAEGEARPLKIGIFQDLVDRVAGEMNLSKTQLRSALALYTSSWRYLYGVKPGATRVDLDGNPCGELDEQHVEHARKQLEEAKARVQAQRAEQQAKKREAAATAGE
In words: EMSA; max fraction bound just above 40%; EMSA: 25 mM Tris pH 7.5, 150 mM NaCl, 5% glycerol, 1 mM MgCl2, 1 nM 32P-RNA, 30 min RT; microplates pretreated with 0.0025% BSA; 6% gel in 0.5x TBE at 4 C. Conditions: protein: recombinant; tags: His6-TEV removed, N-terminal Ser remains; label: 5'-32P; terminator hairpin, 8 U 3' tail.

Take SibA: the binding signal (fold weaker Kd than WT) in series [1] was above 5; in [3] it was 2. Moreover, the binding signal in [2] came to 25 % max bound. The Kd in [4] was above 1000 nM.
As for SibB-5U, in series [5], the binding signal was above 30 % max bound.

B1: cspE-mini (structured_RNA)
RNA: GGAAUUCGGAAGGCGCUUAAUCAGCGCCUUUUUUUU
B1: in the series with ProQ NTD R69A [6], the binding result is on record as “binds”. Besides, the binding signal with ProQ NTD K35A [7] (hairpin with 5' and 3' single-stranded regions) is ~2 fold weaker Kd than K35A with cspE-3'.

B2: cspE-mini-3'-6U (structured_RNA)
RNA: GGAAUUCGGAAGGCGCUUAAUCAGCGCCUUUUUU
As to B2, the binding signal is ~2.4 fold weaker Kd than R69A with cspE-mini with ProQ NTD R69A [8] and ~1.4 fold weaker Kd than K35A with cspE-mini in the series with ProQ NTD K35A [7] (hairpin, 6 U tail (2 predicted single-stranded)).

B3: cspE-mini-5'-blunt (structured_RNA)
RNA: GGAAGGCGCUUAAUCAGCGCCUUUUUUUU
B3: the binding result with ProQ NTD R69A [9] and with ProQ NTD K35A [10] was “no binding” each time.

B4: cspE-3' (structured_RNA)
RNA: GUAAGAUACGUCAGCAAGAAUUCAAAACCCGCUUAAUCAGCGGGUUUUUUUU
As for B4, the binding result is “no binding” in the series with ProQ NTD R80K, “no binding” with ProQ NTD R80A and “binds” in the series with ProQ NTD K35A [12]. For the same molecule, the binding signal with ProQ NTD T65A is around 4 fold weaker Kd than WT; with ProQ NTD D41A it was around 3 fold weaker Kd than WT; with ProQ NTD R62A, around 4 fold weaker Kd than WT. For the same molecule, in the series with ProQ NTD R69A [11], the Kd worked out at 20 nM.

Broadly, the Kd is the free concentration of one partner at which half of the binding sites on the other are occupied at equilibrium, for simple one-to-one binding.
